{
  "source": "patent US20210107988A1",
  "about": "(Genmab, published 2021)",
  "binders": {"B1": {"name": "IgG1-b12 (human IgG1 antibody b12, HIV gp120-specific) (antibody)", "heavy": "not shown", "light": "EIVLTQSPGTLSLSPGERATFSCRSSHSIRSRRVAWYQHKPGQAPRLVIHGVSNRASGISDRFSGSGSGTDFTLTITRVEPEDFALYYCQVYGASSYTFGQGTKLERKRTVAAPSVFIFPPSDEQLKSGTASVVCLLNNFYPREAKVQWKVDNALQSGNSQESVTEQDSKDSTYSLSSTLTLSKADYEKHKVYACEVTHQGLSSPVTKSFNRGEC", "notes": "also called IgG-b12"}, "B2": {"name": "IgG1-CAMPATH-1H-E430G-K439E with introduced mutation G237A (antibody, name in EU numbering)", "heavy": "QVQLQESGPGLVRPSQTLSLTCTVSGFTFTDFYMNWVRQPPGRGLEWIGFIRDKAKGYTTEYNPSVKGRVTMLVDTSKNQFSLRLSSVTAADTAVYYCAREGHTAAPFDYWGQGSLVTVSSASTKGPSVFPLAPSSKSTSGGTAALGCLVKDYFPEPVTVSWNSGALTSGVHTFPAVLQSSGLYSLSSVVTVPSSSLGTQTYICNVNHKPSNTKVDKRVEPKSCDKTHTCPPCPAPELLGAPSVFLFPPKPKDTLMISRTPEVTCVVVDVSHEDPEVKFNWYVDGVEVHNAKTKPREEQYNSTYRVVSVLTVLHQDWLNGKEYKCKVSNKALPAPIEKTISKAKGQPREPQVYTLPPSREEMTKNQVSLTCLVKGFYPSDIAVEWESNGQPENNYKTTPPVLDSDGSFFLYSKLTVDKSRWQQGNVFSCSVMHGALHNHYTQESLSLSPGK", "light": "not shown", "notes": "also called IgG1-CAMPATH-1H-E430G-K439E-G237A"}, "B3": {"name": "IgG1-Campath-E430G I253K/S440K (antibody)", "heavy": "B2 heavy with A241G, I257K, E443K, S444K", "light": "not shown", "notes": "also called IgG1-CAMPATH-1H-E430G-S440K with I253K; constant region IgG1m(f)-I253K-E430G-S440K"}, "B4": {"name": "IgG1-Campath-E430G H310R/S440K (antibody)", "heavy": "B2 heavy with A241G, H314R, E443K, S444K", "light": "not shown", "notes": "also called IgG1-CAMPATH-1H-E430G-S440K with H310R; constant region IgG1m(f)-H310R-E430G-S440K"}, "B5": {"name": "IgG1-Campath-E430G I253R/S440K (antibody)", "heavy": "B2 heavy with A241G, I257R, E443K, S444K", "light": "not shown", "notes": "also called IgG1-CAMPATH-1H-E430G-S440K with I253R; constant region IgG1m(f)-I253R-E430G-S440K"}, "B6": {"name": "IgG1-Campath-E430G I253G/K439E (antibody)", "heavy": "B2 heavy with A241G, I257G", "light": "not shown", "notes": "also called IgG1-CAMPATH-1H-E430G-K439E with I253G; constant region IgG1m(f)-I253G-E430G-K439E"}, "B7": {"name": "IgG1-11B8-E430G-S440K with introduced mutation G237A (antibody, name in EU numbering)", "heavy": "EVQLVQSGGGLVHPGGSLRLSCTGSGFTFSYHAMHWVRQAPGKGLEWVSIIGTGGVTYYADSVKGRFTISRDNVKNSLYLQMNSLRAEDMAVYYCARDYYGAGSFYDGLYGMDVWGQGTTVTVSSASTKGPSVFPLAPSSKSTSGGTAALGCLVKDYFPEPVTVSWNSGALTSGVHTFPAVLQSSGLYSLSSVVTVPSSSLGTQTYICNVNHKPSNTKVDKRVEPKSCDKTHTCPPCPAPELLGAPSVFLFPPKPKDTLMISRTPEVTCVVVDVSHEDPEVKFNWYVDGVEVHNAKTKPREEQYNSTYRVVSVLTVLHQDWLNGKEYKCKVSNKALPAPIEKTISKAKGQPREPQVYTLPPSREEMTKNQVSLTCLVKGFYPSDIAVEWESNGQPENNYKTTPPVLDSDGSFFLYSKLTVDKSRWQQGNVFSCSVMHGALHNHYTQKKLSLSPGK", "light": "not shown", "notes": "also called IgG1-11B8-E430G-S440K-G237A"}},
  "key": {"[1]": {"molecular_target": "T1, FcRnECDHis-B2M-BIO (biotinylated extracellular domain of human FcRn with a C-terminal His tag as dimer with … (human, UniProt P55899 24-297)); P61769 21-119, biotinylated (site not stated))", "T1 construct": "Coated on Streptawell plates at 5 µg/mL; also called FcRnhsECDHis", "T1 sequence (P55899 other isoform, or with tags, fused parts or gaps limits assumed, chain 1 of 2)": "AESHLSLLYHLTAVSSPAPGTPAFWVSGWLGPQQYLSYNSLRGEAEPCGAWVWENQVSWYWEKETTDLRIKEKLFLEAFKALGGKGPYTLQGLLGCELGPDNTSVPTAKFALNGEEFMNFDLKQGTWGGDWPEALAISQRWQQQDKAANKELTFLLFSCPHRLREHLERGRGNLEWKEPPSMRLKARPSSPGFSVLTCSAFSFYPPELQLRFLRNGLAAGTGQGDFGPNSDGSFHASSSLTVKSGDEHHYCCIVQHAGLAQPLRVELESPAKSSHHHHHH", "T1 sequence (P61769 21-119 limits assumed, chain 2 of 2)": "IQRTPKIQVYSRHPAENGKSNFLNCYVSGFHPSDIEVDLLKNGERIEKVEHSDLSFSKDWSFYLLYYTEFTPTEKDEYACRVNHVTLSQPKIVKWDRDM", "test": "FcRn ELISA, pH 6.0"}, "[2]": {"molecular_target": "T2, dimeric, His-tagged, C-terminally biotinylated ECD of FcγRIIIA allotype 158V (C-terminally biotinylated)", "T2 construct": "also called diFCGR3A-158V-HisBAP; IIIA-158V", "test": "FcγR ELISA"}, "[3]": {"molecular_target": "T3, dimeric, His-tagged, C-terminally biotinylated ECD of FcγRIIA allotype 131H (Homo sapiens (Human), UniProt P12318 34-215, C-terminally biotinylated)", "T3 sequence": "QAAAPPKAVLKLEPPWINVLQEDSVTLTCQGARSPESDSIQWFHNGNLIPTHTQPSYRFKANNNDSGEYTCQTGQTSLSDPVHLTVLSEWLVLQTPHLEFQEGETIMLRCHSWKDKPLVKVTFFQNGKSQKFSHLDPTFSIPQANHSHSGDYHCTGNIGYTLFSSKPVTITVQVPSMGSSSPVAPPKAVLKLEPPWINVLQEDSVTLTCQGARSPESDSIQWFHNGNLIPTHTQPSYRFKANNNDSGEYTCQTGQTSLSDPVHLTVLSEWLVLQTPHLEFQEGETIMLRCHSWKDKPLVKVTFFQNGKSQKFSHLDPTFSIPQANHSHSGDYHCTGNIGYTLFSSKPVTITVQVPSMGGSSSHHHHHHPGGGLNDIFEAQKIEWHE", "test": "FcγR ELISA"}, "[4]": {"molecular_target": "T1, FcRnECDHis-B2M-BIO (biotinylated …)", "test": "FcRn ELISA, pH 7.4"}, "[5]": {"molecular_target": "dimeric, His-tagged, C-terminally biotinylated ECD of FcγRIIIA allotype 158F (C-terminally biotinylated)", "test": "FcγR ELISA"}},
  "note": "Substitutions are numbered along the chain they refer to. Names may count otherwise.",
  "data": [
    {"binder": "B1", "values": [
      {"measurement": "binding result", "setting": "[1]", "result": "binds"}
    ]},
    {"binder": "B2", "values": [
      {"measurement": "binding result", "setting": "[2]", "result": "no binding (tested: 20 µg/mL)"},
      {"measurement": "binding result", "setting": "[3]", "result": "no binding (tested: 20 µg/mL)"}
    ]},
    {"binder": "B3", "values": [
      {"measurement": "binding result", "setting": "[4]", "result": "no binding (tested: 40 µg/mL)"}
    ]},
    {"binder": "B4", "values": [
      {"measurement": "binding result", "setting": "[4]", "result": "no binding (tested: 40 µg/mL)"}
    ]},
    {"binder": "B5", "values": [
      {"measurement": "binding result", "setting": "[4]", "result": "no binding (tested: 40 µg/mL)"}
    ]},
    {"binder": "B6", "values": [
      {"measurement": "binding result", "setting": "[4]", "result": "no binding (tested: 40 µg/mL)"}
    ]},
    {"binder": "B7", "values": [
      {"measurement": "binding result", "setting": "[2]", "result": "no binding (tested: 20 µg/mL)"},
      {"measurement": "binding result", "setting": "[3]", "result": "no binding (tested: 20 µg/mL)"},
      {"measurement": "binding result", "setting": "[5]", "result": "no binding (tested: 20 µg/mL)"}
    ]}
  ]
}
